From paper PMC4359074

Molecular target: mono-nucleosome di-methylated at H3K4 (Xenopus)
Assay: native gel or EMSA

B1: GST-PHD_(Yng2) (domain or fragment)
chain: TLYCFCQRVSFGEMVACDGPNCKYEWFHYDCVNLKEPPKGTWYCPECKIE
modifications: not checked
Kd: 10 µM
